Measured values from patent US20100216715A1 (Novo Nordisk, published 2010).
Where a chain is given by its changes, count along the chain named. Numbers in names are those of the source. Blank lines part the entries; values can stand above or below the binder they belong to.

Target: T1, human beta-Klotho (human, UniProt Q86Z14 1-1044)
T1 sequence (looked up): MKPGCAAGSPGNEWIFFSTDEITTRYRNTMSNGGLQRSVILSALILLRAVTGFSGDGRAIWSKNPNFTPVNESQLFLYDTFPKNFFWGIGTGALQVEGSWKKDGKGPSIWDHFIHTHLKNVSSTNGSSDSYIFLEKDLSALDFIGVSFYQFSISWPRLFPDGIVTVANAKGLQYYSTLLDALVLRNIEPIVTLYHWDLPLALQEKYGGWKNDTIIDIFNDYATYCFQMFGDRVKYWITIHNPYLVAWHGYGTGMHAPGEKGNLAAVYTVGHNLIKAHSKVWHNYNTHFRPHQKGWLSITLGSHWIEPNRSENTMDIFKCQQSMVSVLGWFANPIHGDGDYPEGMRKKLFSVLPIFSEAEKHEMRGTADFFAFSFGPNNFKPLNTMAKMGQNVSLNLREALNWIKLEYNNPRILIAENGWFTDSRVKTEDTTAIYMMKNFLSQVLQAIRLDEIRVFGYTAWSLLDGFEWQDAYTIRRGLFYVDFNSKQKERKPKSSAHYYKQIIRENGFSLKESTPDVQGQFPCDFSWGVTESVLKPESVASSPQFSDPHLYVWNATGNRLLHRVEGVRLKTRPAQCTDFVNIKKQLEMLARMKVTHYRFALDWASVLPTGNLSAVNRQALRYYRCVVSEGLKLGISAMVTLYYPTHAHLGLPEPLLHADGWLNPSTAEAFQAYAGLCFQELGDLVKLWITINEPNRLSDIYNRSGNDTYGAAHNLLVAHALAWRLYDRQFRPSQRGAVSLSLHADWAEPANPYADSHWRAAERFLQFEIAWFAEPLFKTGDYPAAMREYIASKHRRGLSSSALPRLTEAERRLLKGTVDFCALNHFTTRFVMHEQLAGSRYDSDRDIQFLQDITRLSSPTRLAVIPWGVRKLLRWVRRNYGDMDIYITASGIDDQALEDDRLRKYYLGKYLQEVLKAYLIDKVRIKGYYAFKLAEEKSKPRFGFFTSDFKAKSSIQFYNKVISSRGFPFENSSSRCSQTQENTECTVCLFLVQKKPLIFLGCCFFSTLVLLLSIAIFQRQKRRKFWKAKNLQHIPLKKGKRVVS
Assay: cell-based or functional assay

- pERK-HEK293-Beta-klotho without HSA [EC50 (nM)] Median Value: 6.6 nM
B1: (K56R, K59R, K69R, D102E, N121Q, K122R, M168L) GSGSG-FGF21 (ligand)
chain: GSGSGHPIPDSSPLLQFGGQVRQRYLYTDDAQQTEAHLEIREDGTVGGAADQSPESLLQLRALRPGVIQILGVRTSRFLCQRPDGALYGSLHFDPEACSFRELLLEEGYNVYQSEAHGLPLHLPGQRSPHRDPAPRGPARFLPLPGLPPALPEPPGILAPQPPDVGSSDPLSLVGPSQGRSPSYAS

- pERK-HEK293-Beta-klotho without HSA [EC50 (nM)] Median Value: 2 nM
B2: (-5G, -4S, -3G, -2S, -1G, K56R, 59R, 69R, 102E, 121Q, 122R, 168L) FGF21 derivative of Example 55 (ligand)
chain: B1 chain
modifications: N-alpha-1-[4-(16-1H-tetrazol-5-yl-hexadecanoylsulfamoyl)-butyryl] on the N-terminal alpha amino group

- pERK-HEK293-Beta-klotho without HSA [EC50 (nM)] Median Value: 11 nM
B3: [-5G, -4S, -3G, -2S, -1G, K56R, 59R, 69R, 102E, 121Q, 122R, 168L] FGF21 derivative of Example 52 (ligand)
chain: B1 chain
modifications: N-alpha-1-[2-(2-{2-[2-(2-{2-[(S)-4-carboxy-4-(17-carboxy-heptadecanoylamino)-butyrylamino]-ethoxy}-ethoxy)-acetylamino]-ethoxy}-ethoxy)-acetyl] on the N-terminal alpha amino group

- pERK-HEK293-Beta-klotho without HSA [EC50 (nM)] Median Value: 100 nM
B4: (M168A) Met-FGF21 (ligand)
chain: MHPIPDSSPLLQFGGQVRQRYLYTDDAQQTEAHLEIREDGTVGGAADQSPESLLQLKALKPGVIQILGVKTSRFLCQRPDGALYGSLHFDPEACSFRELLLEDGYNVYQSEAHGLPLHLPGNKSPHRDPAPRGPARFLPLPGLPPALPEPPGILAPQPPDVGSSDPLSAVGPSQGRSPSYAS

- pERK-HEK293-Beta-klotho without HSA [EC50 (nM)] Median Value: 6.7 nM
B5: (D24K) Met-FGF21 (ligand)
chain: B4 chain with D25K, A169M

- pERK-HEK293-Beta-klotho without HSA [EC50 (nM)] Median Value: 100 nM
B6: (M168S) Ser-FGF21 (ligand)
chain: B4 chain with M1S, A169S

- pERK-HEK293-Beta-klotho without HSA [EC50 (nM)] Median Value: 1 nM
B7: (Q28R, A31 E) Met-FGF21 (ligand)
chain: B4 chain with Q29R, A32E, A169M

- pERK-HEK293-Beta-klotho without HSA [EC50 (nM)] Median Value: 1.4 nM
B8: M168L Met-FGF21 (ligand)
chain: B4 chain with A169L

- pERK-HEK293-Beta-klotho without HSA [EC50 (nM)] Median Value: 1.1 nM
B9: S71C Met-FGF21 derivative of Example 5 (ligand)
chain: B4 chain with S72C, A169M
modifications: S-71-[1-(2-{2-[2-(2-{2-[2-(2-{2-[(S)-4-carboxy-4-(19-carboxy-nonadecanoylamino)-butyrylamino]-ethoxy}-ethoxy)-acetylamino]-ethoxy}-ethoxy)-acetylamino]-ethylcarbamoyl}-ethyl)-2,5-dioxo-pyrrolidin-3-yl] on the thiol of Cys71

- pERK-HEK293-Beta-klotho without HSA [EC50 (nM)] Median Value: 4.8 nM
B10: S71C Met-FGF21 derivative of Example 13 (ligand)
chain: B4 chain with S72C, A169M
modifications: S-71-[1-(2-{2-[2-(2-{2-[2-(2-{2-[(S)-4-carboxy-4-(17-carboxy-heptadecanoylamino)-butyrylamino]-ethoxy}-ethoxy)-acetylamino]-ethoxy}-ethoxy)-acetylamino]-ethylcarbamoyl}-ethyl)-2,5-dioxo-pyrrolidin-3-yl] on the thiol of Cys71

- pERK-HEK293-Beta-klotho without HSA [EC50 (nM)] Median Value: 1.5 nM
B11: S71C Met-FGF21 derivative of Examples 6 and 12 (ligand)
chain: B4 chain with S72C, A169M
modifications: S-71-({2-[2-(2-{2-[2-(2-{2-[(S)-4-carboxy-4-(19-carboxy-nonadecanoylamino)-butyrylamino]-ethoxy}-ethoxy)-acetylamino]-ethoxy}-ethoxy)-acetylamino]-ethylcarbamoyl}-methyl) on the thiol of Cys71

- pERK-HEK293-Beta-klotho without HSA [EC50 (nM)] Median Value: 3 nM
B12: S71C Met-FGF21 (ligand)
chain: B4 chain with S72C, A169M

- pERK-HEK293-Beta-klotho without HSA [EC50 (nM)] Median Value: 2.9 nM
B13: S71C Met-FGF21 derivative of Example 14 (ligand)
chain: B4 chain with S72C, A169M
modifications: S-71-({2-[2-(2-{2-[2-(2-{2-[(S)-4-carboxy-4-(17-carboxy-heptadecanoylamino)-butyrylamino]-ethoxy}-ethoxy)-acetylamino]-ethoxy}-ethoxy)-acetylamino]-ethylcarbamoyl}-methyl) on the thiol of Cys71

- pERK-HEK293-Beta-klotho without HSA [EC50 (nM)] Median Value: 1.4 nM
B14: (K56R, K59R, K69R, K122R) Met-FGF21 derivative of Example 7 (ligand)
chain: B4 chain with K57R, K60R, K70R, K123R, A169M
modifications: N-alpha-1-[2-(2-{2-[2-(2-{2-[(S)-4-carboxy-4-(17-carboxy-heptadecanoylamino)-butyrylamino]-ethoxy}-ethoxy)-acetylamino]-ethoxy}-ethoxy)-acetyl] on the alpha amino group of the N-terminal Met

- pERK-HEK293-Beta-klotho without HSA [EC50 (nM)] Median Value: 2.2 nM
B15: Q27E Met-FGF21 (ligand)
chain: B4 chain with Q28E, A169M

- pERK-HEK293-Beta-klotho without HSA [EC50 (nM)] Median Value: 100 nM
B16: (M168S) Met-FGF21 (ligand)
chain: B4 chain with A169S

- pERK-HEK293-Beta-klotho without HSA [EC50 (nM)] Median Value: 5.9 nM
B17: (179F, 180E, 181R) Met-FGF21 (ligand)
chain: B4 chain with A169M, Y180F, A181E, S182R

- pERK-HEK293-Beta-klotho without HSA [EC50 (nM)] Median Value: 4.7 nM
B18: A26E Met-FGF21 (ligand)
chain: B4 chain with A27E, A169M

- pERK-HEK293-Beta-klotho without HSA [EC50 (nM)] Median Value: 3.3 nM
B19: (S71C, D102E, N121Q, L166F, S167G, M168L, 169aT, P171L, S172E, Q173A, G174V, Y179F, A180E, S181K) Ala-FGF21 (ligand)
chain: AHPIPDSSPLLQFGGQVRQRYLYTDDAQQTEAHLEIREDGTVGGAADQSPESLLQLKALKPGVIQILGVKTCRFLCQRPDGALYGSLHFDPEACSFRELLLEEGYNVYQSEAHGLPLHLPGQKSPHRDPAPRGPARFLPLPGLPPALPEPPGILAPQPPDVGSSDPFGLVTGLEAVRSPSFEK

- pERK-HEK293-Beta-klotho without HSA [EC50 (nM)] Median Value: 3.8 nM
B20: (K56R, K59R, K69R, K122R, L166F, S167G, M168L, 169aT, P171L, S172E, Q173A, G174V, Y179F, A180E, S181R) Ser-FGF21 (ligand)
chain: B19 chain with A1S, K57R, K60R, K70R, C72S, E103D, Q122N, K123R, K183R

- pERK-HEK293-Beta-klotho without HSA [EC50 (nM)] Median Value: 1 nM
B21: (L166F, S167G, M168L, 169aT, P171L, S172E, Q173A, G174V, Y179F, A180E, S181K) Ser-FGF21 (ligand)
chain: B19 chain with A1S, C72S, E103D, Q122N

- pERK-HEK293-Beta-klotho without HSA [EC50 (nM)] Median Value: 3 nM
B22: (-1A, 71C, 121Q, 166F, 167G, 168L, 169aT, 171L, 172E, 173A, 174V, 179F, 180E, 181K) FGF21 derivative of Example 17 (ligand)
chain: B19 chain with E103D
modifications: S-71-({2-[2-(2-{2-[2-(2-{2-[(S)-4-carboxy-4-(17-carboxy-heptadecanoylamino)-butyrylamino]-ethoxy}-ethoxy)-acetylamino]-ethoxy}-ethoxy)-acetylamino]-ethylcarbamoyl}-methyl) on the thiol of Cys71

- pERK-HEK293-Beta-klotho without HSA [EC50 (nM)] Median Value: 2.2 nM
B23: (S71C, L166F, S167G, M168L, 169aT, P171L, S172E, Q173A, G174V, Y179F, A180E, S181K) Ser-FGF21 (ligand)
chain: B19 chain with A1S, E103D, Q122N

- pERK-HEK293-Beta-klotho without HSA [EC50 (nM)] Median Value: 3.9 nM
B24: (169aT, 171L, 172E, 173A, 174V, 179F, 180E, 181K) Met-FGF21 (ligand)
chain: B19 chain with A1M, C72S, E103D, Q122N, F167L, G168S, L169M

- pERK-HEK293-Beta-klotho without HSA [EC50 (nM)] Median Value: 2 nM
B25: (S71C, N121Q, L166F, S167G, M168L, 169aT, P171L, S172E, Q173A, G174V, Y179F, A180E, S181K) Ala-FGF21 (ligand)
chain: B19 chain with E103D

- pERK-HEK293-Beta-klotho without HSA [EC50 (nM)] Median Value: 2 nM
B26: (K56R, 59R, 69R, 122R, 166F, 167G, 168L, 169aT, 171L, 172E, 173A, 174V, 179F, 180E, 181R) Ser-FGF21 derivative of Example 50 (ligand)
chain: B19 chain with A1S, K57R, K60R, K70R, C72S, E103D, Q122N, K123R, K183R
modifications: N-alpha-1-[2-(2-{2-[2-(2-{2-[(S)-4carboxy-4-(17-carboxy-heptadecanoylamino)-butyrylamino]-ethoxy}-ethoxy)-acetylamino]-ethoxy}-ethoxy)-acetyl] on the N-terminal alpha amino group

- pERK-HEK293-Beta-klotho without HSA [EC50 (nM)] Median Value: 2.5 nM
B27: (-1S, 71C, 166F, 167G, 168L, 169aT, 171L, 172E, 173A, 174V, 179F, 180E, 181K) FGF21 derivative of Example 18 (ligand)
chain: B19 chain with A1S, E103D, Q122N
modifications: S-71-({2-[2-(2-{2-[2-(2-{2-[(S)-4-carboxy-4-(17-carboxy-heptadecanoylamino)-butyrylamino]-ethoxy}-ethoxy)-acetylamino]-ethoxy}-ethoxy)-acetyl-amino]-ethylcarbamoyl}-methyl) on the thiol of Cys71

- pERK-HEK293-Beta-klotho without HSA [EC50 (nM)] Median Value: 1 nM
B28: (des N121) Met-FGF21 (ligand)
chain: MHPIPDSSPLLQFGGQVRQRYLYTDDAQQTEAHLEIREDGTVGGAADQSPESLLQLKALKPGVIQILGVKTSRFLCQRPDGALYGSLHFDPEACSFRELLLEDGYNVYQSEAHGLPLHLPGKSPHRDPAPRGPARFLPLPGLPPALPEPPGILAPQPPDVGSSDPLSMVGPSQGRSPSYAS

- pERK-HEK293-Beta-klotho without HSA [EC50 (nM)] Median Value: 12 nM
B29: (K56R, K59R, K69R, K122R) FGF21 (ligand)
chain: HPIPDSSPLLQFGGQVRQRYLYTDDAQQTEAHLEIREDGTVGGAADQSPESLLQLRALRPGVIQILGVRTSRFLCQRPDGALYGSLHFDPEACSFRELLLEDGYNVYQSEAHGLPLHLPGNRSPHRDPAPRGPARFLPLPGLPPALPEPPGILAPQPPDVGSSDPLSMVGPSQGRSPSYAS

- pERK-HEK293-Beta-klotho without HSA [EC50 (nM)] Median Value: 3 nM
B30: (K56R, K59R, K69R, N121Q, K122R, L166F, S167G, M168L, 169aT, P171L, S172E, Q173A, G174V, Y179F, A180E, S181R) FGF21 (ligand)
chain: HPIPDSSPLLQFGGQVRQRYLYTDDAQQTEAHLEIREDGTVGGAADQSPESLLQLRALRPGVIQILGVRTSRFLCQRPDGALYGSLHFDPEACSFRELLLEDGYNVYQSEAHGLPLHLPGQRSPHRDPAPRGPARFLPLPGLPPALPEPPGILAPQPPDVGSSDPFGLVTGLEAVRSPSFER
